How the values were obtained:
[1] = target: human CD3 on T cells (human) (UniProt P07766); experiment: cell-based or functional assay
[2] = target: human CEA on cells (CHO/huCEA, ASPC-1, LS1034) (human) (UniProt P06731); experiment: cell-based or functional assay
human CD3 (human) = human CD3 (human) (UniProt P07766); experiment: method not stated; KD of the CD3 binding arm, used to calculate fractional receptor occupancy

Chain of UniProt P06731 (P06731 35-702): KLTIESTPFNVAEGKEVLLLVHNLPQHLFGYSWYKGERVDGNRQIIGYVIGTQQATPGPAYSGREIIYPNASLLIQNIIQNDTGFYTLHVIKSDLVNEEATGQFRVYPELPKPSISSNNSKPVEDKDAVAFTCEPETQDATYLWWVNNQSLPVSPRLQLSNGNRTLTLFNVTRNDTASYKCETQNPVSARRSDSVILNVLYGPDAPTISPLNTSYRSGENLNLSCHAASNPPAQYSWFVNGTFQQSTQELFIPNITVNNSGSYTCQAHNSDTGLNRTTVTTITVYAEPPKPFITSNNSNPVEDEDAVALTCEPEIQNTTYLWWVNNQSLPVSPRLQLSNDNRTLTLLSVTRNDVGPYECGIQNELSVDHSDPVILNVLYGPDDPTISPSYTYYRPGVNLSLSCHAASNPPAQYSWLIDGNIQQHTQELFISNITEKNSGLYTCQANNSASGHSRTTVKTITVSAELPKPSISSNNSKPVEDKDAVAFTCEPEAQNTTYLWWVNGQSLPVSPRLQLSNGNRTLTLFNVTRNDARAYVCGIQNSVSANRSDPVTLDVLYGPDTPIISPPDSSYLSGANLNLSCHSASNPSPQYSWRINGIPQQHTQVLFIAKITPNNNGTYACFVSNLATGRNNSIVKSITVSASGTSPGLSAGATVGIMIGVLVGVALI

Substance: MEDI-565 (bispecific antibody)
- EC20 of CD25 de novo expression, C/P (PBMC without CD14 cocultured with CHO/huCEA), mean [1]: 0.217 ng/mL
- EC20 of CD25 upregulation on T cells (ASPC-1 target cells, PBMC with CD3ε, 48 h), mean of 10 donors [1]: 0.376 ng/mL
- EC20 of CD69 de novo expression, A/3 (PBMC with CD3ε cocultured with ASPC-1), mean [1]: 0.105 ng/mL
- EC20 of CD69 de novo expression, C/P (PBMC without CD14 cocultured with CHO/huCEA), mean [1]: 0.134 ng/mL
- EC20 of CD69 upregulation on T cells (ASPC-1 target cells, PBMC with CD3ε, 48 h), mean of 5 donors [1]: 0.441 ng/mL
- EC20 of IFNγ release (ASPC-1 target cells, PBMC with CD3ε, 48 h), mean [1]: 1.56 ng/mL
- EC20 of IL2 release (ASPC-1 target cells, PBMC with CD3ε, 48 h), mean [1]: 0.732 ng/mL
- EC20 of IL6 release (ASPC-1 target cells, PBMC with CD3ε, 48 h), mean [1]: 1.83 ng/mL
- EC20 of IL10 release (ASPC-1 target cells, PBMC with CD3ε, 48 h), mean [1]: 0.686 ng/mL
- EC20 of TNFα release (ASPC-1 target cells, PBMC with CD3ε, 48 h), mean [1]: 1.29 ng/mL
- EC50 of CD25 upregulation on T cells (ASPC-1 target cells, PBMC with CD3ε, 48 h), mean of 10 donors [1]: 4.65 ng/mL
- EC50 of CD69 de novo expression, A/3 (PBMC with CD3ε cocultured with ASPC-1), mean [1]: 1.26 ng/mL
- EC50 of CD69 de novo expression, C/3 (PBMC with CD3ε cocultured with CHO/huCEA), one value [1]: 1.34 ng/mL
- EC50 of CD69 upregulation on T cells (ASPC-1 target cells, PBMC with CD3ε, 48 h), mean of 5 donors [1]: 13.8 ng/mL
- EC50 of IFNγ release (ASPC-1 target cells, PBMC with CD3ε, 48 h), mean [1]: 3.29 ng/mL
- EC50 of IL2 release (ASPC-1 target cells, PBMC with CD3ε, 48 h), mean [1]: 2.14 ng/mL
- EC50 of IL6 release (ASPC-1 target cells, PBMC with CD3ε, 48 h), mean [1]: 4.04 ng/mL
- EC50 of IL10 release (ASPC-1 target cells, PBMC with CD3ε, 48 h), mean [1]: 3.92 ng/mL
- EC50 of TNFα release (ASPC-1 target cells, PBMC with CD3ε, 48 h), mean [1]: 6.56 ng/mL
- mean EC20 of CD25 upregulation (PBMC with CD3ε cocultured with CHO/huCEA, E:T 10:1, 72 h) [1]: 0.269 ng/mL
- EC20 of specific lysis of ASPC-1 cells (PBMC with CD3ε, E:T 5:1, 48 h), mean of 10 donors [2]: 0.097 ng/mL
- EC20 of specific lysis, C/P (CHO/huCEA cocultured with PBMC without CD14), mean [2]: 0.371 ng/mL
- EC50 of specific lysis of ASPC-1 cells (PBMC with CD3ε, E:T 5:1, 48 h), mean of 10 donors [2]: 2.03 ng/mL
- EC50 of specific lysis, A/P (ASPC-1 cocultured with PBMC without CD14), mean [2]: 0.971 ng/mL
- mean EC20 of specific lysis of ASPC-1 cells (PBMC with CD3ε, E:T 5:1, 48 h; Example 1, 11 donors) [2]: 0.05 ng/mL
- Kd (human CD3 (human)): 0.307 µM

— US20140242081A1
